Starred links: 1 amine or outer side, 2 acyl side, 3 side chain; linkers in the order of their positions; H or OH if unused. Non-standard residues stand in square brackets, D forms with d. Primed or numbered codes have the meaning given here. dProc4Bn4Br = (2R,4R)-4-[(4-bromophenyl)methyl]pyrrolidine-2-carboxylic acid, O=C([C@H]1C[C@@H](Cc2ccc(Br)cc2)CN1[*:1])[*:2]; Trp(4-Cl)(βS-Me) = C[C@@H](c1c[nH]c2cccc(Cl)c12)[C@H](N)C(=O)O; Trp(βS-Me,4-F) = C[C@@H](c1c[nH]c2cccc(F)c12)[C@H](N)C(=O)O; Bip(4'-COOH) = N[C@@H](Cc1ccc(-c2ccc(C(=O)O)cc2)cc1)C(=O)O; Ala(1-bicyclo(1.1.1)pentyl) = N[C@@H](CC12CC(C1)C2)C(=O)O; dPro(4R-Bzl(4-F)) = O=C(O)[C@H]1C[C@@H](Cc2ccc(F)cc2)CN1; 1Nal(3S-Me) = C[C@@H](c1cccc2ccccc12)[C@H](N)C(=O)O; Ala(pyrimidin-5-yl) = N[C@@H](Cc1cncnc1)C(=O)O; Phe(4-COOH) = N[C@@H](Cc1ccc(C(=O)O)cc1)C(=O)O; dαMeDab = C[C@](CCN[*:3])(N[*:1])C(=O)[*:2]; Pro(cis-4-F) = O=C(O)[C@@H]1C[C@H](F)CN1; d(αMeD) = C[C@@](N)(CC(=O)O)C(=O)O; aIle = CC[C@@H](C)[C@H](N)C(=O)O; d(αMeK) = C[C@@](N)(CCCCN)C(=O)O; 4Pal = N[C@@H](Cc1ccncc1)C(=O)O; aThr = C[C@H](O)[C@H](N)C(=O)O; αMeD = C[C@](N)(CC(=O)O)C(=O)O; αMeK = C[C@](N)(CCCCN)C(=O)O; dαMeDab′ = not defined here; hSer = N[C@@H](CCO)C(=O)O; Dab = NCC[C@H](N)C(=O)O; Aib = CC(C)(N)C(=O)O; Sar = CNCC(=O)O
Target: Recombinant human IL-1β (BioLegend 579404) (human, UniProt P01584 117-269)
Assay: cell-based or functional assay

B1: SEQ ID NO: 135 (peptide)
peptide: cyclo([Bip(4'-COOH)][4Pal][Phe(4-COOH)]G[Pro(cis-4-F)][Trp(βS-Me,4-F)][Aib]VW[αMeK][Ala(pyrimidin-5-yl)]Q[Dab]G[dPro(4R-Bzl(4-F))])
modifications: ring closure inferred; not fully specified (bridges); printed as Bip4CO2H-4Pal-Phe4COOH-G-Proc4F-SbMeW4F-Aib-V-W-aMeK-PyrimAla-Q-Dab-G-dProc4Bn4F
  MRC5 IC50: 0.035 nM

B2: SEQ ID NO: 132 (peptide)
peptide: cyclo([Bip(4'-COOH)][4Pal][Phe(4-COOH)]G[Pro(cis-4-F)][Trp(βS-Me,4-F)][Aib]EW[αMeK][Ala(pyrimidin-5-yl)]Q[Dab][Sar][dPro(4R-Bzl(4-F))])
modifications: ring closure inferred; not fully specified (bridges); printed as Bip4CO2H-4Pal-Phe4COOH-G-Proc4F-SbMeW4F-Aib-E-W-aMeK-PyrimAla-Q-Dab-Sar-dProc4Bn4F
  MRC5 IC50: 0.015 nM

B3: SEQ ID NO: 129 (peptide)
peptide: cyclo([Bip(4'-COOH)][4Pal][Phe(4-COOH)]G[Pro(cis-4-F)][Trp(βS-Me,4-F)][αMeDab]SW[Aib][Ala(pyrimidin-5-yl)]Q[Dab]G[dPro(4R-Bzl(4-F))])
modifications: ring closure inferred; not fully specified (bridges); printed as Bip4CO2H-4Pal-Phe4COOH-G-Proc4F-SbMeW4F-aMeDab-S-W-Aib-PyrimAla-Q-Dab-G-dProc4Bn4F
  MRC5 IC50: 0.019 nM

B4: SEQ ID NO: 133 (peptide)
peptide: cyclo([Bip(4'-COOH)][4Pal][Phe(4-COOH)]G[Pro(cis-4-F)][Trp(βS-Me,4-F)][Aib][hSer]W[αMeK][Ala(pyrimidin-5-yl)]Q[Dab]G[dPro(4R-Bzl(4-F))])
modifications: ring closure inferred; not fully specified (bridges); printed as Bip4CO2H-4Pal-Phe4COOH-G-Proc4F-SbMeW4F-Aib-hS-W-aMeK-PyrimAla-Q-Dab-G-dProc4Bn4F
  MRC5 IC50: 0.021 nM

B5: SEQ ID NO: 128 (peptide)
peptide: cyclo([Bip(4'-COOH)][4Pal][Phe(4-COOH)]G[Pro(cis-4-F)][Trp(βS-Me,4-F)][Aib]SW[d(αMeD)][Ala(pyrimidin-5-yl)]Q[Dab]G[dPro(4R-Bzl(4-F))])
modifications: ring closure inferred; not fully specified (bridges); printed as Bip4CO2H-4Pal-Phe4COOH-G-Proc4F-SbMeW4F-Aib-S-W-daMeD-PyrimAla-Q-Dab-G-dProc4Bn4F
  MRC5 IC50: 0.009 nM

B6: SEQ ID NO: 131 (peptide)
peptide: cyclo([Bip(4'-COOH)][4Pal][Phe(4-COOH)]G[Pro(cis-4-F)][Trp(βS-Me,4-F)][dαMeDab′]SW[Aib][Ala(pyrimidin-5-yl)]Q[Dab]G[dPro(4R-Bzl(4-F))])
modifications: ring closure inferred; not fully specified (bridges); printed as Bip4CO2H-4Pal-Phe4COOH-G-Proc4F-SbMeW4F-daMeDab-S-W-Aib-PyrimAla-Q-Dab-G-dProc4Bn4F
  MRC5 IC50: 0.019 nM

B7: SEQ ID NO: 143 (peptide)
peptide: cyclo([Bip(4'-COOH)][4Pal][Phe(4-COOH)]G[Pro(cis-4-F)][Trp(βS-Me,4-F)][Aib]EW[Aib][Ala(pyrimidin-5-yl)]Q[Dab]G[dProc4Bn4Br])
modifications: ring closure inferred; not fully specified (bridges); printed as Bip4CO2H-4Pal-Phe4COOH-G-Proc4F-sbMeW4F-Aib-E-W-Aib-PyrimAla-Q-Dab-G-dProc4Bn4Br, cyclic (macrolactam)
  MRC5 IC50: 0.026 nM

B8: SEQ ID NO: 134 (peptide)
peptide: cyclo([Bip(4'-COOH)][4Pal][Phe(4-COOH)]G[Pro(cis-4-F)][Trp(βS-Me,4-F)][Aib]AW[αMeK][Ala(pyrimidin-5-yl)]Q[Dab]G[dPro(4R-Bzl(4-F))])
modifications: ring closure inferred; not fully specified (bridges); printed as Bip4CO2H-4Pal-Phe4COOH-G-Proc4F-SbMeW4F-Aib-A-W-aMeK-PyrimAla-Q-Dab-G-dProc4Bn4F
  MRC5 IC50: 0.021 nM

B9: SEQ ID NO: 141 (peptide)
peptide: cyclo([Bip(4'-COOH)][4Pal][Phe(4-COOH)]G[Pro(cis-4-F)][Trp(βS-Me,4-F)][Aib]SW[αMeD][Ala(pyrimidin-5-yl)]Q[Dab]G[dPro(4R-Bzl(4-F))])
modifications: ring closure inferred; not fully specified (bridges); printed as Bip4CO2H-4Pal-Phe4COOH-G-Proc4F-SbMeW4F-Aib-S-W-aMeD-PyrimAla-Q-Dab-G-dProc4Bn4F
  MRC5 IC50: 0.011 nM

B10: SEQ ID NO: 136 (peptide)
peptide: cyclo([Bip(4'-COOH)][4Pal][Phe(4-COOH)]G[Pro(cis-4-F)][Trp(βS-Me,4-F)][Aib][aIle]W[αMeK][Ala(pyrimidin-5-yl)]Q[Dab]G[dPro(4R-Bzl(4-F))])
modifications: ring closure inferred; not fully specified (bridges); printed as Bip4CO2H-4Pal-Phe4COOH-G-Proc4F-SbMeW4F-Aib-alI-W-aMeK-PyrimAla-Q-Dab-G-dProc4Bn4F
  MRC5 IC50: 0.027 nM

B11: SEQ ID NO: 145 (peptide)
peptide: cyclo([Bip(4'-COOH)][Ala(1-bicyclo(1.1.1)pentyl)][Phe(4-COOH)]G[Pro(cis-4-F)][Trp(βS-Me,4-F)][Aib]SW[d(αMeK)][Ala(pyrimidin-5-yl)]Q[Dab]G[dPro(4R-Bzl(4-F))])
modifications: ring closure inferred; not fully specified (bridges); printed as Bip4CO2H-AlaPent-Phe4COOH-G-Proc4F-SbMeW4F-Aib-S-W-daMeK-PyrimAla-Q-Dab-G-dProc4Bn4F, cyclic (macrolactam)
  MRC5 IC50: 0.041 nM

B12: SEQ ID NO: 144 (peptide)
peptide: cyclo([Bip(4'-COOH)][Ala(1-bicyclo(1.1.1)pentyl)][Phe(4-COOH)]G[Pro(cis-4-F)][Trp(βS-Me,4-F)][Aib]SW[αMeK][Ala(pyrimidin-5-yl)]Q[Dab]G[dPro(4R-Bzl(4-F))])
modifications: ring closure inferred; not fully specified (bridges); printed as Bip4CO2H-AlaPent-Phe4COOH-G-Proc4F-SbMeW4F-Aib-S-W-aMeK-PyrimAla-Q-Dab-G-dProc4Bn4F, cyclic (macrolactam)
  MRC5 IC50: 0.031 nM

B13: SEQ ID NO: 140 (peptide)
peptide: cyclo([Bip(4'-COOH)][4Pal][Phe(4-COOH)]G[Pro(cis-4-F)][1Nal(3S-Me)][Aib]SW[Aib][Ala(pyrimidin-5-yl)]Q[Dab]G[dPro(4R-Bzl(4-F))])
modifications: ring closure inferred; not fully specified (bridges); printed as Bip4CO2H-4Pal-Phe4COOH-G-Proc4F-SbMe1Nal-Aib-S-W-Aib-PyrimAla-Q-Dab-G-dProc4Bn4F
  MRC5 IC50: 0.033 nM

B14: SEQ ID NO: 130 (peptide)
peptide: cyclo([Bip(4'-COOH)][4Pal][Phe(4-COOH)]G[Pro(cis-4-F)][Trp(βS-Me,4-F)][Aib]SW[αMeDab][Ala(pyrimidin-5-yl)]Q[Dab]G[dPro(4R-Bzl(4-F))])
modifications: ring closure inferred; not fully specified (bridges); printed as Bip4CO2H-4Pal-Phe4COOH-G-Proc4F-SbMeW4F-Aib-S-W-aMeDab-PyrimAla-Q-Dab-G-dProc4Bn4F
  MRC5 IC50: 0.039 nM

B15: SEQ ID NO: 139 (peptide)
peptide: cyclo([Bip(4'-COOH)][4Pal][Phe(4-COOH)]G[Pro(cis-4-F)][Trp(4-Cl)(βS-Me)][Aib]SW[Aib][Ala(pyrimidin-5-yl)]Q[Dab]G[dPro(4R-Bzl(4-F))])
modifications: ring closure inferred; not fully specified (bridges); printed as Bip4CO2H-4Pal-Phe4COOH-G-Proc4F-SbMeW4Cl-Aib-S-W-Aib-PyrimAla-Q-Dab-G-dProc4Bn4F
  MRC5 IC50: 0.034 nM

B16: SEQ ID NO: 137 (peptide)
peptide: cyclo([Bip(4'-COOH)][4Pal][Phe(4-COOH)]G[Pro(cis-4-F)][Trp(βS-Me,4-F)][Aib]TW[αMeK][Ala(pyrimidin-5-yl)]Q[Dab]G[dPro(4R-Bzl(4-F))])
modifications: ring closure inferred; not fully specified (bridges); printed as Bip4CO2H-4Pal-Phe4COOH-G-Proc4F-SbMeW4F-Aib-T-W-aMeK-PyrimAla-Q-Dab-G-dProc4Bn4F
  MRC5 IC50: 0.022 nM

B17: SEQ ID NO: 138 (peptide)
peptide: cyclo([Bip(4'-COOH)][4Pal][Phe(4-COOH)]G[Pro(cis-4-F)][Trp(βS-Me,4-F)][Aib][aThr]W[αMeK][Ala(pyrimidin-5-yl)]Q[Dab]G[dPro(4R-Bzl(4-F))])
modifications: ring closure inferred; not fully specified (bridges); printed as Bip4CO2H-4Pal-Phe4COOH-G-Proc4F-SbMeW4F-Aib-alT-W-aMeK-PyrimAla-Q-Dab-G-dProc4Bn4F
  MRC5 IC50: 0.021 nM

B18: SEQ ID NO: 142 (peptide)
peptide: cyclo([Bip(4'-COOH)][4Pal][Phe(4-COOH)]G[Pro(cis-4-F)][Trp(βS-Me,4-F)][Aib]SW[dαMeDab][Ala(pyrimidin-5-yl)]Q[Dab]G[dPro(4R-Bzl(4-F))])
modifications: ring closure inferred; not fully specified (bridges); printed as Bip4CO2H-4Pal-Phe4COOH-G-Proc4F-SbMeW4F-Aib-S-W-daMeDab-PyrimAla-Q-Dab-G-dProc4Bn4F
  MRC5 IC50: 0.019 nM
